B1: Azoarcus group I ribozyme (parent)
chain: GUGCCUUGCGCCGGGAAACCACGCAAGGGAUGGUGUCAAAUUCGGCGAAACCUAAGCGCCCGCCCGGGCGUAUGGCAACGCCGAGCCAAGCUUCGGCGCCUGCGCCGAUGAAGGUGUAGAGACUAGACGGCACCCACCUAAGGCAAACGCUAUGGUGAAGGCAUAGUCCAGGGAGUGGCGAAAGUCACACAAACCGG

Variants of: B1
Test: reverse-splicing fitness (ratio to wild type); higher = more active; in vitro selection; Mg2+ level not given
Outline: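 An in vitro group I ribozyme library with randomized positions was T7-transcribed and gel-purified. In triplicate, 10 pmol RNA in EPPS pH 7.5 was reacted with 50 pmoles of a 30-nt RNA substrate for 1 h at 37 °C across several added MgCl2 levels (1–48 mM), then stopped with EDTA. Products were reverse transcribed from a substrate-complementary primer, PCR-amplified and sequenced (HiSeq 4000). Fitness is a variant's read proportion after selection over that before, normalised to wild type.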

Q: Which reverse-splicing fitness does the source give for GUGCCUUGCGCCGGGAAACCACGCAAGGGAUGGUGUCAAAUUCGGCGAAACCUAAGCGCCCGCCCGGGCGUAUGGCAACGCCGAGCCAAGCUUCGGCGCCUGCGCCGAUGCAGGUGUAGCGACUAGACGGCACCCACCUAAGGCUAACGGUAUGGUGAAGGCAUAGUCAAGGGAGCGGCGAAAGUCACACAAACCGG here?
A: 0.00906

Q: For GUGCCUUGCGCCGGGAAACCACGCAAGGGAUGGUGUCAAAUUCGGCGAAACCUAAGCGCCCGCCCGGGCGUAUGGCAACGCCGAGCCAAGCUUCGGCGCCUGCGCCGAUGCAGGUGUAGCGACUAGACGGCACCCACCUAAGGCUAACGGUAUGGUGAAGGCAUAGUCAAGGGAGGGGCGAAAGUCACACAAACCGG, which reverse-splicing fitness is on record?
A: 0.00619

Q: With GUGCCUUGCGCCGGGAAACCACGCAAGGGAUGGUGUCAAAUUCGGCGAAACCUAAGCGCCCGCCCGGGCGUAUGGCAACGCCGAGCCAAGCUUCGGCGCCUGCGCCGAUGCAGGUGUAGCGACUAGACGGCACCCACCUAAGGCUAACGGUAUGGUGAAGGCAUAGUCGAGGGAGUGGCGAAAGUCACACAAACCGG as the variant, how does the reverse-splicing fitness read?
A: 0.00671

Q: With GUGCCUUGCGCCGGGAAACCACGCAAGGGAUGGUGUCAAAUUCGGCGAAACCUAAGCGCCCGCCCGGGCGUAUGGCAACGCCGAGCCAAGCUUCGGCGCCUGCGCCGAUGCAGGUGUAGCGACUAGACGGCACCCACCUAAGGCUAACGGUAUGGUGAAGGCAUAGUCGAGGGAGAGGCGAAAGUCACACAAACCGG as the variant, how does the reverse-splicing fitness read?
A: 0.00752

Q: Which reverse-splicing fitness does the source give for GUGCCUUGCGCCGGGAAACCACGCAAGGGAUGGUGUCAAAUUCGGCGAAACCUAAGCGCCCGCCCGGGCGUAUGGCAACGCCGAGCCAAGCUUCGGCGCCUGCGCCGAUGCAGGUGUAGCGACUAGACGGCACCCACCUAAGGCUAACGGUAUGGUGAAGGCAUAGUCGAGGGAGCGGCGAAAGUCACACAAACCGG here?
A: 0.00645

Q: With GUGCCUUGCGCCGGGAAACCACGCAAGGGAUGGUGUCAAAUUCGGCGAAACCUAAGCGCCCGCCCGGGCGUAUGGCAACGCCGAGCCAAGCUUCGGCGCCUGCGCCGAUGCAGGUGUAGCGACUAGACGGCACCCACCUAAGGCUAACGGUAUGGUGAAGGCAUAGUCGAGGGAGGGGCGAAAGUCACACAAACCGG as the variant, how does the reverse-splicing fitness read?
A: 0.00591

Q: For GUGCCUUGCGCCGGGAAACCACGCAAGGGAUGGUGUCAAAUUCGGCGAAACCUAAGCGCCCGCCCGGGCGUAUGGCAACGCCGAGCCAAGCUUCGGCGCCUGCGCCGAUGCAGGUGUAGCGACUAGACGGCACCCACCUAAGGCUAACGGUAUGGUGAAGGCAUAGUCUAGGGAGUGGCGAAAGUCACACAAACCGG, which reverse-splicing fitness is on record?
A: 0.0234

Q: For GUGCCUUGCGCCGGGAAACCACGCAAGGGAUGGUGUCAAAUUCGGCGAAACCUAAGCGCCCGCCCGGGCGUAUGGCAACGCCGAGCCAAGCUUCGGCGCCUGCGCCGAUGCAGGUGUAGCGACUAGACGGCACCCACCUAAGGCUAACGGUAUGGUGAAGGCAUAGUCUAGGGAGAGGCGAAAGUCACACAAACCGG, which reverse-splicing fitness is on record?
A: 0.00997

Q: For GUGCCUUGCGCCGGGAAACCACGCAAGGGAUGGUGUCAAAUUCGGCGAAACCUAAGCGCCCGCCCGGGCGUAUGGCAACGCCGAGCCAAGCUUCGGCGCCUGCGCCGAUGCAGGUGUAGCGACUAGACGGCACCCACCUAAGGCUAACGGUAUGGUGAAGGCAUAGUCUAGGGAGCGGCGAAAGUCACACAAACCGG, which reverse-splicing fitness is on record?
A: 0.0173

Q: Which reverse-splicing fitness does the source give for GUGCCUUGCGCCGGGAAACCACGCAAGGGAUGGUGUCAAAUUCGGCGAAACCUAAGCGCCCGCCCGGGCGUAUGGCAACGCCGAGCCAAGCUUCGGCGCCUGCGCCGAUGCAGGUGUAGCGACUAGACGGCACCCACCUAAGGCUAACGGUAUGGUGAAGGCAUAGUCUAGGGAGGGGCGAAAGUCACACAAACCGG here?
A: 0.00656

Q: With GUGCCUUGCGCCGGGAAACCACGCAAGGGAUGGUGUCAAAUUCGGCGAAACCUAAGCGCCCGCCCGGGCGUAUGGCAACGCCGAGCCAAGCUUCGGCGCCUGCGCCGAUGCAGGUGUAGCGACUAGACGGCACCCACCUAAGGCUAACGGUAUGGUGAAGGCAUAGUCCAGGGAGAGGCGAAAGUCACACAAACCGG as the variant, how does the reverse-splicing fitness read?
A: 0.0202

Q: Which reverse-splicing fitness does the source give for GUGCCUUGCGCCGGGAAACCACGCAAGGGAUGGUGUCAAAUUCGGCGAAACCUAAGCGCCCGCCCGGGCGUAUGGCAACGCCGAGCCAAGCUUCGGCGCCUGCGCCGAUGCAGGUGUAGCGACUAGACGGCACCCACCUAAGGCUAACGGUAUGGUGAAGGCAUAGUCCAGGGAGCGGCGAAAGUCACACAAACCGG here?
A: 0.034

Q: For GUGCCUUGCGCCGGGAAACCACGCAAGGGAUGGUGUCAAAUUCGGCGAAACCUAAGCGCCCGCCCGGGCGUAUGGCAACGCCGAGCCAAGCUUCGGCGCCUGCGCCGAUGCAGGUGUAGCGACUAGACGGCACCCACCUAAGGCUAACGGUAUGGUGAAGGCAUAGUCCAGGGAGGGGCGAAAGUCACACAAACCGG, which reverse-splicing fitness is on record?
A: 0.00607

Q: Which reverse-splicing fitness does the source give for GUGCCUUGCGCCGGGAAACCACGCAAGGGAUGGUGUCAAAUUCGGCGAAACCUAAGCGCCCGCCCGGGCGUAUGGCAACGCCGAGCCAAGCUUCGGCGCCUGCGCCGAUGCAGGUGUAGCGACUAGACGGCACCCACCUAAGGCUAACGUUAUGGUGAAGGCAUAGUCCAGGGAGUGGCGAAAGUCACACAAACCGG here?
A: 0.415

Q: With GUGCCUUGCGCCGGGAAACCACGCAAGGGAUGGUGUCAAAUUCGGCGAAACCUAAGCGCCCGCCCGGGCGUAUGGCAACGCCGAGCCAAGCUUCGGCGCCUGCGCCGAUGCAGGUGUAGCGACUAGACGGCACCCACCUAAGGCUAACGUUAUGGUGAAGGCAUAGUCAAGGGAGUGGCGAAAGUCACACAAACCGG as the variant, how does the reverse-splicing fitness read?
A: 0.0112

— the RNAGym collection of RNA variant scans (doi:10.1093/molbev/msab373)
